Assay results taken from US20190144550A1 (Pfizer, published 2019).

Tests used:
[1] = target: T1, Monomeric 8-histidine tagged human EGFRvIII extracellular domain (human, UniProt P00533 298-645); assay: SPR, captured by anti-human Fc, 25 C
T1 construct: Analyte in all SPR assays; not shown: 8-histidine tag
Method: Human anti-EGFRvIII antibodies were sequenced and subcloned into suitable vectors for expression as recombinant human IgG1 antibodies. […] (Table 9) on a surface plasmon resonance Biacore™ T200 biosensor equipped with an anti-human Fc coupled CM4 sensor chip (GE Healthcare Inc., Piscataway, N.J.). Anti-EGFRvII antibodies were captured by anti-human Fc. Monomeric 8-histidine tagged human EGFRvIII extracellular domain was then injected as the analyte at 10-fold dilution series starting at 1000 nM.

[2] = target: T2, 8-histidine tagged recombinant wild-type protein EGFRwt (UniProt P00533 25-645, limits assumed); assay: SPR, captured by anti-human Fc
T2 construct: not shown: 8-histidine tag

[3] = target: T1, Monomeric 8-histidine tagged human …; assay: SPR, captured by anti-human Fc, 25 C; remark: listed apart in the source
From the text: (§1) Anti-EGFRvII mouse (m) antibody, m62G7, generated from hybridomas was sequenced and subcloned into suitable vectors for expression as murine-human chimeric antibodies. The CDRs of mouse antibody m62G7 were grafted onto human framework and expressed as human IgG1 recombinant antibody, h62G7. Affinity variants of h62G7 were made by introducing mutations in the CDRs of the heavy and light chains. The affinities of recombinant anti-EGFRvIII chimeric antibody m62G7 and humanized h62G7 antibodies were measured on a surface plasmon resonance Biacore™ T200 biosensor equipped with a research-grade anti-human Fc coupled CM4 sensor chip (GE Healthcare Inc., Piscataway, N.J.). Anti-EGFRvII antibodies were then captured by anti-human Fc. Monomeric 8-histidine tagged human EGFRvIII extracellular domain was then injected as the analyte at 10-fold dilution series with top concentration at 1000 nM. Affinity of anti-EGFRvIII antibodies towards human EGFRvIII was measured at both 25° C. and 37° C.

[4] = target: T1, Monomeric 8-histidine tagged human …; assay: SPR, captured by anti-human Fc, 37 C
From the text: as §1

[5] = target: T1, Monomeric 8-histidine tagged human …; assay: SPR, captured by anti-human Fc, 25 C; 25 C
[6] = target: T3, EGFR-mFc (human; mouse, UniProt P00533 25-645); assay: flow cytometry, CAR T cells stained with mFc fusion protein, Day 4
T3 construct: extracellular domain; Produced in HEK293 cells; also called recombinant EGFR-mFc; not shown: mouse IgG1-Fc domain
From the text: (§2) To determine target binding specificity of the CARs, recombinant proteins EGFRvII-mFc and EGFR-mFc, which comprise of the extracellular domain of either human EGFRvIII or human wild-type EGFR, respectively, fused with mouse IgG1-Fc domain, were produced in HEK293 cells. […]

[7] = target: T3, EGFR-mFc; assay: flow cytometry, CAR T cells on Day 4 after transduction incubated with EGFR-mFc, then PE-labeled goat anti-mouse Fc
From the text: as §2

B1: B5 (antibody, V domains shown)
VH: EVQLLESGGGLVQPGGSLRLSCAASGFTFSNYAMSWVRQAPGKGLEWVSDISGGGGRTYYADSVKGRFTISRDNSKNTLYLQMNSLRAEDTAVYYCARAGLLYGGGVYPMDIWGQGTLVTVSS
VL: not shown
notes: From a phage library; recombinant human IgG1
- Kd [1]: 678 nM
- koff [1]: 0.0141 s⁻¹
- kon [1]: 20800 M⁻¹ s⁻¹

B2: h62G7-EQ/L6 (antibody, V domains shown)
VH: QVQLVQSGAEVKKPGASVKVSCKASGYTFTDYTLHWVRQAPGQGLEWMGGIWPITGGTTYNQKFKGRVTMTRDTSTSTVYMELSSLRSEDTAVYYCARGEAQGSWGQGTLVTVSS
VL: DVVMTQSPLSLPVTLGQPASISCKSSQSLLYSNGKTYLNWFQQRPGQSPRRLIYQVSKLDSGVPDRFSGSGSGTDFTLKISRVEAEDVGVYYCGQDTHFPLTFGGGTKVEIK
notes: Humanized, human IgG1 recombinant antibody; also called h62G7-L6/EQ
- binding result [2]: no binding (tested: 1000 nM)
- Kd [3]: 43.8 nM
- koff [3]: 0.01 s⁻¹
- kon [3]: 240000 M⁻¹ s⁻¹
- Kd [4]: 113 nM
- koff [4]: 0.074 s⁻¹
- kon [4]: 660000 M⁻¹ s⁻¹

B3: h62G7-H14/L1-DV (antibody, V domains shown)
VH: QVQLVQSGAEVKKPGASVKVSCKASGYTFTDYTLHWVRQAPGQGLEWMGGIWPITGGTTYNQKFKGRVTMTRDTSTSTVYMELSSLRSEDTAVYYCARGEAEGSWGQGTLVTVSS
VL: DVVMTQSPLSLPVTLGQPASISCKSSQSLLYSNDKTYTNWFQQRPGQSPRRLIYEVSKLDVGVPDRFSGSGSGTDFTLKISRVEAEDVGVYYCGQDTHFPLTFGGGTKVEIK
notes: Humanized, human IgG1 recombinant antibody
- binding result [2]: no binding (tested: 1000 nM)
- Kd [3]: 1090 nM
- koff [3]: 0.02 s⁻¹
- kon [3]: 18000 M⁻¹ s⁻¹
- Kd [4]: 1540 nM
- koff [4]: 0.1 s⁻¹
- kon [4]: 66000 M⁻¹ s⁻¹

B4: h62G7-EQ/L1-DV (antibody, V domains shown)
VH: QVQLVQSGAEVKKPGASVKVSCKASGYTFTDYTLHWVRQAPGQGLEWMGGIWPITGGTTYNQKFKGRVTMTRDTSTSTVYMELSSLRSEDTAVYYCARGEAQGSWGQGTLVTVSS
VL: DVVMTQSPLSLPVTLGQPASISCKSSQSLLYSNDKTYTNWFQQRPGQSPRRLIYEVSKLDVGVPDRFSGSGSGTDFTLKISRVEAEDVGVYYCGQDTHFPLTFGGGTKVEIK
notes: Human IgG1
- binding result [2]: no binding (tested: 1000 nM)
- koff [5]: 0.012 s⁻¹
- Kd [3]: 59.9 nM
- kon [3]: 200000 M⁻¹ s⁻¹
- Kd [4]: 186 nM
- koff [4]: 0.069 s⁻¹
- kon [4]: 370000 M⁻¹ s⁻¹

B5: h62G7-H14/L6 (antibody, V domains shown)
VH: QVQLVQSGAEVKKPGASVKVSCKASGYTFTDYTLHWVRQAPGQGLEWMGGIWPITGGTTYNQKFKGRVTMTRDTSTSTVYMELSSLRSEDTAVYYCARGEAEGSWGQGTLVTVSS
VL: DVVMTQSPLSLPVTLGQPASISCKSSQSLLYSNGKTYLNWFQQRPGQSPRRLIYQVSKLDSGVPDRFSGSGSGTDFTLKISRVEAEDVGVYYCGQDTHFPLTFGGGTKVEIK
notes: Human IgG1
- binding result [2]: no binding (tested: 1000 nM)
- Kd [3]: 992 nM
- koff [3]: 0.013 s⁻¹
- kon [3]: 13000 M⁻¹ s⁻¹
- Kd [4]: 1580 nM
- koff [4]: 0.068 s⁻¹
- kon [4]: 43000 M⁻¹ s⁻¹

B6: 26B9 EGFRvIII specific CAR (other)
chain: EVQLVESWGVLVKPGGSLRLSCAASGFIFNNAWMSWVRQAPGKGLEWIGRIKSKSDGGTTDYAAPVKDRFTISRDDSKDTLYLQMNGLKTEDTAVYFCTTAPGGPFDYWGQGTLVTVSSGGGGSGGGGSGGGGSGGGGSDIVLTQSPLSLPVTPGEPASISCRSSQSLLHRDGFNYLDWFLQKPGQSPQLLIYLASSRASGVPDRFSGSDSGTDFTLKISRVEAEDVGVYYCMQALQTPITFGQGTRLEIKTTTPAPRPPTPAPTIASQPLSLRPEACRPAAGGAVHTRGLDFACDIYIWAPLAGTCGVLLLSLVITLYCKRGRKKLLYIFKQPFMRPVQTTQEEDGCSCRFPEEEEGGCELRVKFSRSADAPAYQQGQNQLYNELNLGRREEYDVLDKRRGRDPEMGGKPRRKNPQEGLYNELQKDKMAEAYSEIGMKGERRRGKGHDGLYQGLSTATKDTYDALHMQALPPR
notes: Chimeric antigen receptor on primary human T cells
- binding result [6]: no binding

B7: C6 (antibody, V domains shown)
VH: QVQLVQSGAEVKKPGSSVKVSCKASGDTFSSNAISWVRQAPGQGLEWMGVIIPIFGTADYAQKFQGRVTITADESTSTAYMELSSLRSEDTAVYYCARHTYHEYAGGYYGGAMDPWGQGTLVTVSS
VL: not shown
notes: as for B1
- Kd [1]: 532 nM
- koff [1]: 0.00894 s⁻¹
- kon [1]: 16800 M⁻¹ s⁻¹

B8: 20E12 EGFRvIII specific CAR (other)
chain: EVNLVESGGGLVKPGGSLRLSCEASGFTFSYAWMSWVRQAPGKGLEWVGRIKSIADGGATDYAAPVRNRFTISRDDSRNTLYLEMHSLKTEDTAVYYCTTIPGNDAFDMWGQGTMVTVSSGGGGSGGGGSGGGGSGGGGSDIVLTQSPLSLSVTPGEPASISCRSSQSLLYSNGKNYLDWFLHKPGQSPQLLIYLGSNRASGVPDRFSGSGSGIDFILKISRVEAEDVGVYYCMQAQQTPITFGQGTRLEIKTTTPAPRPPTPAPTIASQPLSLRPEACRPAAGGAVHTRGLDFACDIYIWAPLAGTCGVLLLSLVITLYCKRGRKKLLYIFKQPFMRPVQTTQEEDGCSCRFPEEEEGGCELRVKFSRSADAPAYQQGQNQLYNELNLGRREEYDVLDKRRGRDPEMGGKPRRKNPQEGLYNELQKDKMAEAYSEIGMKGERRRGKGHDGLYQGLSTATKDTYDALHMQALPPR
notes: as for B6
- binding result [6]: no binding

B9: m62G7 (antibody, V domains shown)
VH: EVQLQQSGPELVKPGASVKISCKTSGYTFTDYTLHWVKQSHVKSLEWIGGIDPINGGTTYNQKFKGKATLTVDKSSSTAYMELRSLTSEDSAVYYCARGEAMDSWGQGTSVTVSS
VL: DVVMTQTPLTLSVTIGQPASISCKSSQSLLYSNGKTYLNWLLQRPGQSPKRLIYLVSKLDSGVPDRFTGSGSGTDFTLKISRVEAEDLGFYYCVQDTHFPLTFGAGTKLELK
notes: Tested as murine-human chimeric antibody, captured by anti-human Fc; also called recombinant anti-EGFRvIII chimeric antibody m62G7
- binding result [2]: no binding (tested: 1000 nM)
- Kd [3]: 88.7 nM
- koff [3]: 0.064 s⁻¹
- kon [3]: 730000 M⁻¹ s⁻¹
- Kd [4]: 207 nM
- koff [4]: 0.17 s⁻¹
- kon [4]: 800000 M⁻¹ s⁻¹

B10: C6 EGFRvIII specific CAR (other)
chain: QVQLVQSGAEVKKPGSSVKVSCKASGDTFSSNAISWVRQAPGQGLEWMGVIIPIFGTADYAQKFQGRVTITADESTSTAYMELSSLRSEDTAVYYCARHTYHEYAGGYYGGAMDPWGQGTLVTVSSGGGGSGGGGSGGGGSGGGGSELQSVLTQPPSASGTPGQRVTISCSGSSSNIGSNYVYWYQQLPGTAPKILIYRNNQRPSGVPDRFSGSKSGTSASLAISGLRSEDEADYYCAAWDDNLSGWVFGTGTKLTVLTTTPAPRPPTPAPTIASQPLSLRPEACRPAAGGAVHTRGLDFACDIYIWAPLAGTCGVLLLSLVITLYCKRGRKKLLYIFKQPFMRPVQTTQEEDGCSCRFPEEEEGGCELRVKFSRSADAPAYQQGQNQLYNELNLGRREEYDVLDKRRGRDPEMGGKPRRKNPQEGLYNELQKDKMAEAYSEIGMKGERRRGKGHDGLYQGLSTATKDTYDALHMQALPPR
notes: Chimeric antigen receptor on primary human T cells; also called EGFRvIII specific clone C6 CAR
- binding result [7]: binds

B11: 30D8 EGFRvIII specific CAR (other)
chain: EVQLVESGGGLVKPGGSLRLSCEASGFTFSDAWMSWVRQAPGKGLEWVGRIKSKTDGGTTDYVVPLNGRFIISRDDSRNTLYLQLNNLKTEDTAVYYCTTVPGSYGYWGQGTLVTVSSGGGGSGGGGSGGGGSGGGGSDIVMTQSPLSLPVTPGEPASISCRSSQSLLHNKRNNYLDWFLQKPGQSPQLLIYLASNRASGVPDRFSGGGSGTDFTLKISRVEAEDVGVYYCMQAQQTPITFGQGTRLEIKTTTPAPRPPTPAPTIASQPLSLRPEACRPAAGGAVHTRGLDFACDIYIWAPLAGTCGVLLLSLVITLYCKRGRKKLLYIFKQPFMRPVQTTQEEDGCSCRFPEEEEGGCELRVKFSRSADAPAYQQGQNQLYNELNLGRREEYDVLDKRRGRDPEMGGKPRRKNPQEGLYNELQKDKMAEAYSEIGMKGERRRGKGHDGLYQGLSTATKDTYDALHMQALPPR
notes: as for B6
- binding result [6]: no binding
